The target of experiment [1] is serum IgM of WM patient 11 (human (endogenous in serum)). Nature of the experiment: SEC + ELISA; serum diluted in PBS fractionated by HP-SEC on Superose 6 increase 10/300 GL in PBS, 0.5 mL/min; IgM, IgM-J-chain and IgM-CD5L measured by ELISA in each 250 µL fraction. (An ELISA detects its analyte on a solid surface through an enzyme-linked reagent.)
Experiment [2] concerns the target IgM of patients with IgM MGUS and WM (n = 29), IgM-CD5L ELISA. Nature of the experiment: ELISA; IgM-CD5L ELISA: anti-human IgM (MH-15-1) coated captures IgM from serum diluted in HPE buffer, room temperature; IgM-bound CD5L detected with a-CD5L-HRP (clone 5B5, 0.5 µg/mL); compared to total IgM.
Experiment [3] has as its target serum IgM of healthy donors (mu heavy and light chains) (human (endogenous in serum)). The experiment is described as above.

B1: CD5-Like (CD5L) (natural protein)
chain: SPSGVRLVGGLHRCEGRVEVEQKGQWGTVCDDGWDIKDVAVLCRELGCGAASGTPSGILYEPPAEKEQKVLIQSVSCTGTEDTLAQCEQEEVYDCSHDEDAGASCENPESSFSPVPEGVRLADGPGHCKGRVEVKHQNQWYTVCQTGWSLRAAKVVCRQLGCGRAVLTQKRCNKHAYGRKPIWLSQMSCSGREATLQDCPSGPWGKNTCNHDEDTWVECEDPFDLRLVGGDNLCSGRLEVLHKGVWGSVCDDNWGEKEDQVVCKQLGCGKSLSPSFRDRKCYGPGVGRIWLDNVRCSGEEQSLEQCQHRFWGFHDCTHQEDVAVICSG
With B1, the percent of IgM molecules that contain CD5L in experiment [1] stood at 10%. The ratio between IgM-CD5L complexes and total IgM in experiment [2] came to 0.1; in experiment [3], 1.
